From IntAct's records for PubMed 23230146 come the findings set out here.

First the molecules themselves.
B1: Autophagy-related protein 18 (Saccharomyces cerevisiae), P43601 (parent)
chain: MSDSSPTINFINFNQTGTCISLGTSKGFKIFNCEPFGKFYSEDSGGYAIVEMLFSTSLLALVGIGDQPALSPRRLRIINTKKHSIICEVTFPTSILSVKMNKSRLVVLLQEQIYIYDINTMRLLHTIETNPNPRGLMAMSPSVANSYLVYPSPPKVINSEIKAHATTNNITLSVGGNTETSFKRDQQDAGHSDISDLDQYSSFTKRDDADPTSSNGGNSSIIKNGDVIVFNLETLQPTMVIEAHKGEIAAMAISFDGTLMATASDKGTIIRVFDIETGDKIYQFRRGTYATRIYSISFSEDSQYLAVTGSSKTVHIFKLGHSMSNNKLDSDDSNMEEAAADDSSLDTTSIDALSDEENPTRLAREPYVDASRKTMGRMIRYSSQKLSRRAARTLGQIFPIKVTSLLESSRHFASLKLPVETNSHVMTISSIGSPIDIDTSEYPELFETGNSASTESYHEPVMKMVPIRVVSSDGYLYNFVMDPERGGDCLILSQYSILMD

In the first assay the parent is B1. Conditions: with atg2_yeast ATG2, P53855.
Chain of atg2_yeast ATG2, P53855 (P53855 whole entry): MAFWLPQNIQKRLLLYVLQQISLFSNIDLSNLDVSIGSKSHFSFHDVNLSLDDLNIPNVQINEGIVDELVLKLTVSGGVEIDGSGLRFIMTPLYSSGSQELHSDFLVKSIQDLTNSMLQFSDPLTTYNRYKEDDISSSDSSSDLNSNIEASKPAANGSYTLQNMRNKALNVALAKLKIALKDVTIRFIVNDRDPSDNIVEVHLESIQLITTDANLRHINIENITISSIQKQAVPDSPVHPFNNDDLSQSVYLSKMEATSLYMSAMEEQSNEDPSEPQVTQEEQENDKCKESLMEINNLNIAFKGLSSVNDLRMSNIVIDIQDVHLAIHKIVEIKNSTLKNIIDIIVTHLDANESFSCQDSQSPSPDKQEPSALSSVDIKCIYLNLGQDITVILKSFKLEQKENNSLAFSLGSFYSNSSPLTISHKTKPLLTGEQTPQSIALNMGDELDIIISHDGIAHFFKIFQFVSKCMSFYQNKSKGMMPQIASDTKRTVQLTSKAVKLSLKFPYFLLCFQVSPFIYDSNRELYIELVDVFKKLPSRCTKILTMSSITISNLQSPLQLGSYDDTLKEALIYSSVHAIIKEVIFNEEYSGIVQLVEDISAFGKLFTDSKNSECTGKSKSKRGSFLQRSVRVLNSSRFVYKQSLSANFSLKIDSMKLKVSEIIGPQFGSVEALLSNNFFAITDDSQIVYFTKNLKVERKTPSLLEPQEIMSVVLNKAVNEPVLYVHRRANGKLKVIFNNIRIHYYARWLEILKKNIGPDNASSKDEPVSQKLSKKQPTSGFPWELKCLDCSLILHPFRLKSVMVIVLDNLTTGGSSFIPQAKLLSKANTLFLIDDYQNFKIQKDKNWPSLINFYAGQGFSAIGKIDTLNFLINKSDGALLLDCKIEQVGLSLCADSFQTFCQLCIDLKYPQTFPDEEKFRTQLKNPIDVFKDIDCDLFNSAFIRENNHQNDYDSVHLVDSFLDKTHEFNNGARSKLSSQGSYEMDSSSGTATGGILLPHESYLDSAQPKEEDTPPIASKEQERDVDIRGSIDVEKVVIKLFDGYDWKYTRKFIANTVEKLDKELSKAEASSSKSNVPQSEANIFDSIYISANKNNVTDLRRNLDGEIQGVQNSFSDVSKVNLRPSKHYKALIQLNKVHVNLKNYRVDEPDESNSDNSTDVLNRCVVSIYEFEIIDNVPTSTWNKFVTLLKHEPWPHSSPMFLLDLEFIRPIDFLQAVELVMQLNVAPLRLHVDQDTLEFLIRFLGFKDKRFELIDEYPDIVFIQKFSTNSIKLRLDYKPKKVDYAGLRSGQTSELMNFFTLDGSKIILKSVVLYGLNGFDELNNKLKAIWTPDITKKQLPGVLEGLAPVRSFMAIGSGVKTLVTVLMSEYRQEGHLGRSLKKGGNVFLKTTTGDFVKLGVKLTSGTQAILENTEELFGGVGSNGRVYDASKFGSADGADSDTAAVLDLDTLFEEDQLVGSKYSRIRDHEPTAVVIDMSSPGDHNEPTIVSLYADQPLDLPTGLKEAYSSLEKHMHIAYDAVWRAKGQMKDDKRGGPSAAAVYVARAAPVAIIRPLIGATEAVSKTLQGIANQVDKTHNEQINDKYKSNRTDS
Take R285A;R286A: the “effect of a mutation on the interaction” value is recorded as “disrupting interaction strength”.

The variants in another assay derive from B1. Conditions: with atg2_yeast ATG2, P53855. This is another data set of the same source.
Take E42A;D43A;S44A;Y47A;T90A;F91A;P92A;T93A;S94A: the “effect of a mutation on the interaction” value was “disrupting interaction strength”.

Variants of B1 are the subject of a further assay. Conditions: with atg2_yeast ATG2, P53855. This is another data set of the same source.
Regarding T90A;F91A;P92A;T93A;S94A, the “effect of a mutation on the interaction” value is listed as “decreasing interaction strength”.
